Experimental data reported in patent US9873883B2, “Glyphosate resistant plants and associated methods” (Dow AgroSciences LLC, priority 2012, dated 2018).

Test system: C=C(OP(=O)(O)O)C(=O)O
Assay: In vitro kinetic assay (inorganic phosphate production, malachite green)
Format: biochemical, Mariprofundus ferrooxydans
Settings: other: pH 7.5, 1 mM S3P

## Mariprofundus ferrooxydans EPSP synthase DGT-14 variant DGT-14 v6 (G101A), SEQ ID NO:1 (Mariprofundus ferrooxydans PV-1; G101A)
  Km: 352.5 µM
